Reference: US20240109962A1 (SPARX BIOSCIENCE, published 2024)

Assays:
[1] = biological target: T1, human LILRB2 expressed on cells (293T-LILRB2, CHO-K1-LILRB2) (human, UniProt Q8N423 22-597); assay: flow cytometry, blockade of PE-HLA-A2 tetramer binding to CHO-K1-huLILRB2 cells
T1 construct: whole, on cells; the cell line is named under assay; also called HEK293T-LILRB2
Experimental: Pre-experimentation was performed to determine parameters for this assay. PE-labelled HLA-A2 tetramer at the concentration of 0.25 μg/ml and an anti-LILRB2 antibody at the concentration of 2.5 μg/ml were incubated with CHO-K1-huLILRB2 cells for 10 minutes. The cells were washed twice and then analysed by flow cytometry. […] FIG. 3A.
Clones 11B12, 9B6, and 9H6 were selected for dose-dependent blockade assays against HLA-A2 from binding to CHO-K1-huLILRB2 cells. A mouse IgG (mIgG) antibody was used as a negative control.

[2] = biological target: T2, His-tagged human LILRB2 polypeptide (human, UniProt Q8N423 22-460); assay: SPR, antibody on CM5 chip, His-LILRB2 analyte, 1:1 model
T2 construct: SPR analyte; also called His-tagged human LILBR2 polypeptide; not shown: His tag
T2 sequence (Q8N423 22-460 limits assumed): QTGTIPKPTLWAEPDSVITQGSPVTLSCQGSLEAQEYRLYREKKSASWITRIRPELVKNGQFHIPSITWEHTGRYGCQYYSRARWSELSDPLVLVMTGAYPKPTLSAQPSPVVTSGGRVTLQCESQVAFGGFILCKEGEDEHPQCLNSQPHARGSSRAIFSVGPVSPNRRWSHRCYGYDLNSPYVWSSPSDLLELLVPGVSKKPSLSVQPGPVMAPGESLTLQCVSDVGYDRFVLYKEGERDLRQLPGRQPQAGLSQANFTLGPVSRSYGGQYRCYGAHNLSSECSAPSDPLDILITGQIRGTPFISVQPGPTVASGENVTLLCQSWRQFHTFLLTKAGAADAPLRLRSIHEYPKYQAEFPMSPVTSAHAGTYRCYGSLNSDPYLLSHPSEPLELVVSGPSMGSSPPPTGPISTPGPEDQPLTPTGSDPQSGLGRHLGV
Experimental: Surface plasmon resonance (SPR) was used to examine binding activities of exemplary anti-LILBR2 antibodies disclosed herein. Briefly, the anti-LILBR2 antibody was diluted in a coating buffer to a concentration of 30 μg/ml, loaded onto CM5 chips at 10 μl/min to allow coating of the antibody on the surface of the CM5 chip. […] Binding affinity was measured based on the 1:1 binding model.

LILRB3-His = biological target: T3, LILRB3-His; assay: ELISA on recombinant His-tagged protein, OD450
T3 construct: also called His-tagged LILRB3; recombinant LILRB3 protein

LILRB2-Fc fusion protein = biological target: T4, LILRB2-Fc fusion protein (human, UniProt Q8N423 22-460, limits assumed); assay: ELISA, blockade of LILRB2-Fc binding to coated His-ANGPTL2
T4 construct: not shown: Fc
T4 sequence (Q8N423 22-460 limits assumed): as above
Experimental: His-tagged ANGPTL2 protein (1 μg/ml) was placed in a 96-well plate ([…]) and incubated at 4° C. overnight. Afterwards, LILRB2-Fc fusion protein at 0.25 mg/ml was incubated with the anti-LILRB2 antibody at various concentrations at room temperature for one hour and then added into the His-ANGPTL2 coated plate. The plate was placed in a shaker at 500 rpm for 2 hours at room temperature. HRP-labelled goat anti-human Fc antibody (1:10,000 dilution) was added to the plate (100 μl/well). After incubation at room temperature for 1 hour, TMB was added for color development.
Clones 11B12, 9B6, 9H6, and 14F1 were selected for dose-dependent blockade assays. A mouse IgG (mIgG) antibody was used as a negative control. […] The IC₅₀ values are around 1 nM. […] (ix) Exemplary Anti-LILBR2 Antibodies Enhanced TNFα Expression and Suppressed IL-10 Expression in LPS-Stimulated PBMCs

[3] = biological target: LILRB2 antigen of the ELISA of Table 5 (format not specified) (UniProt Q8N423 22-460, limits assumed); assay: ELISA, antibody titration
Sequence of LILRB2 antigen of the ELISA of Table 5 (format not specified) (Q8N423 22-460 limits assumed): as above

[4] = biological target: T5, human LILRB1 expressed on 293T cells (human, UniProt Q8NHL6 24-650); assay: cell ELISA on fixed 293T transfectants, OD490
T5 construct: whole, on cells
T5 sequence (Q8NHL6 24-650): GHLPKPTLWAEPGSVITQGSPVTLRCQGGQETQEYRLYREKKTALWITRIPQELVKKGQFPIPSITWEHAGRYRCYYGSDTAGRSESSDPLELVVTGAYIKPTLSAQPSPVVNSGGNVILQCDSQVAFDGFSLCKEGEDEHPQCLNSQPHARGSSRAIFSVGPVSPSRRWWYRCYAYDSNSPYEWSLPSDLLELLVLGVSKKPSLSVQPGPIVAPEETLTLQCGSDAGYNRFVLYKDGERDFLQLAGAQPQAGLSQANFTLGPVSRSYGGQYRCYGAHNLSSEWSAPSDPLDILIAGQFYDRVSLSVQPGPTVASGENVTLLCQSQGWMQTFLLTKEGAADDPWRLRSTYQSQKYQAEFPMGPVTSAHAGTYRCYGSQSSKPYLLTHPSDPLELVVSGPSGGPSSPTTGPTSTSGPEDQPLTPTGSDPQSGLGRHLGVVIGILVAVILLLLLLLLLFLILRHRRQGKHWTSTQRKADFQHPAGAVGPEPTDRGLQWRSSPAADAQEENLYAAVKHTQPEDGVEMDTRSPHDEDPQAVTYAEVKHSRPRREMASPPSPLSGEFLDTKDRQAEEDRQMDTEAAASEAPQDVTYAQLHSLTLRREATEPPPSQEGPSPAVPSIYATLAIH
Experimental: (§1) The cells were then immobilized with glutaraldehyde in the presence of 5% defatted milk at room temperature for 2 hours. An anti-LILRB2 antibody (2 μg/ml) was added to each well and incubated at room temperature for 2 hours. An HRP-labelled goat anti-mouse secondary antibody was then added into each well and incubated at room temperature for one hour. An HRP substrate, o-phenylenediamine dihydrochloride (OPD) was then added to each well. The plate was incubated at room temperature for 15 min to allow color development and OD₄₉₀ values were determined.

[5] = biological target: T6, human LILRB3 expressed on 293T cells (human, UniProt O75022 24-631); assay: cell ELISA on fixed 293T transfectants, OD490
T6 construct: whole, on cells
Experimental: as §1

[6] = biological target: T1, human LILRB2 expressed on cells …; assay: flow cytometry, blockade of PE-HLA-G tetramer binding to 293T-huLILRB2 cells
Experimental: Pre-experimentation was performed to determine parameters for this assay. […] The cells were washed twice and then analysed by flow cytometry. […] FIG. 3C.
A mouse IgG (mIgG) antibody was used as a negative control.

[7] = biological target: T5, human LILRB1 expressed on 293T cells; assay: cell ELISA on fixed 293T transfectants, antibody 2 µg/ml, OD490
Experimental: as §1

[8] = biological target: T1, human LILRB2 expressed on cells …; assay: flow cytometry, blockade of His-tagged HLA-G tetramer binding to 293T-LILRB2 cells; fit table under the graph
Experimental: Serial diluted humanized LILRB2 antibodies were then added to the mixture and incubated at room temperature for another 45 minutes. The binding of HLA-G/LILRB2 was detected afterwards using a secondary PE-labeled anti-His tag antibody via flow cytometry.

[9] = biological target: T1, human LILRB2 expressed on cells …; assay: flow cytometry on 293T-LILRB2 cells, serial dilution, APC anti-human IgG; fit table under the graph
From the text: The cells were washed and then subject to flow cytometry to measure levels of fluorescent signals.

LILRB1-His = biological target: T7, LILRB1-His; assay: ELISA on recombinant His-tagged protein, OD450
T7 construct: also called His-tagged LILRB1; recombinant LILRB1 protein
T7 sequence (chain, as listed by the source limits assumed): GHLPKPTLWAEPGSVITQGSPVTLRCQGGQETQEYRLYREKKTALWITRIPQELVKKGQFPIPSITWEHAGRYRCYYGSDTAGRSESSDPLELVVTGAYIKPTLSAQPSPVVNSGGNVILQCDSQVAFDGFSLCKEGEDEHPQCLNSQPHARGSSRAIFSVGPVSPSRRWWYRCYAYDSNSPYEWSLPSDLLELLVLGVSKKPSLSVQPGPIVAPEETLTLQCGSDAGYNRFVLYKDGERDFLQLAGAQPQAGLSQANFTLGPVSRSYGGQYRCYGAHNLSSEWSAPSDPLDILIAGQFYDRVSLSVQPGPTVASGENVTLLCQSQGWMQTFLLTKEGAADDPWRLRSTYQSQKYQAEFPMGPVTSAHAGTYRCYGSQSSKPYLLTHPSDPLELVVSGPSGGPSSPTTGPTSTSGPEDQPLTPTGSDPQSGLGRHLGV

[10] = biological target: T6, human LILRB3 expressed on 293T cells; assay: cell ELISA, 293T-LILRB3 cells, antibody 2 ug/ml
Experimental: as §1

[11] = biological target: T1, human LILRB2 expressed on cells …; assay: cell ELISA, 293T-LILRB2 cells, antibody 2 ug/ml
Experimental: as §1

[12] = biological target: T5, human LILRB1 expressed on 293T cells; assay: flow cytometry on 293T transfectants, MFI
Procedure, shortened: (§2)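 Cells fixed with glutaraldehyde in 5% defatted milk, RT 2 h, then stained with anti-LILRB2 antibody (5 μg/ml, RT 1 h) and Alexa Fluor goat anti-mouse secondary (1:2,000, RT 30′). After two PBS washes, mean fluorescence intensity was measured.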

[13] = biological target: T6, human LILRB3 expressed on 293T cells; assay: flow cytometry on 293T transfectants, MFI
Procedure, shortened: as §2

[14] = biological target: T5, human LILRB1 expressed on 293T cells; assay: cell ELISA, 293T-LILRB1 cells, antibody 2 ug/ml
Experimental: as §1

T1 sequence (Q8N423 22-597): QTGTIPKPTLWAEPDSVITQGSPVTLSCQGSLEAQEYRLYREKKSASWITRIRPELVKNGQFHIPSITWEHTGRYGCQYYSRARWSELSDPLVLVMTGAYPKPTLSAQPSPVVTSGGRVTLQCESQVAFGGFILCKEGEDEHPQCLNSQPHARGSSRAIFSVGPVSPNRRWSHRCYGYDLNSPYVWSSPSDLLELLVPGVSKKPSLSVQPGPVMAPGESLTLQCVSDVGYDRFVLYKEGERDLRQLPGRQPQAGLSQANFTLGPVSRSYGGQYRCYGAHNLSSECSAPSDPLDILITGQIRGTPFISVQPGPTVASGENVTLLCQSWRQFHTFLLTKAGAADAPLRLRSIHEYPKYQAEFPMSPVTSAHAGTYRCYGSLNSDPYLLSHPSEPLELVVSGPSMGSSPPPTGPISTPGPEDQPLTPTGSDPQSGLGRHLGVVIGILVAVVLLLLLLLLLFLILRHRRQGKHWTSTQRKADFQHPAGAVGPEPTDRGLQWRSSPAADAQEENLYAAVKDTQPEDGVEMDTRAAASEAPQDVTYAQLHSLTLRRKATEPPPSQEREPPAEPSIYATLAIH

| Binder | IC50 [1] | Kd [2] | koff [2] | kon [2] | binding result (LILRB3-His) | IC50 (LILRB2-Fc fusion protein) | Kd [3] | binding result [4] | binding result [5] | IC50 [6] | binding result [7] | IC50 [8] | Kd [9] | binding result (LILRB1-His) | OD490 [10] | OD490 [11] | binding result [12] | binding result [13] | OD490 [14] |
| --- | --- | --- | --- | --- | --- | --- | --- | --- | --- | --- | --- | --- | --- | --- | --- | --- | --- | --- | --- |
| Antibody 11B12 (antibody, V domains shown, Mouse hybridoma mAb purified from ascites) VH: DVQLQESGPGLVKPSQSLSLTCSVTGYSITSGYYWNWIRQFPGNKLEWMGYISYDGNNNYNPSLKNRISITRDTSKNQFFLKLNSVTTEDTATYYCAREESTMITTAWFAYWGQGTLVTVSA VL: DIQMTQSPASLSVSVGETVTITCRASENIYSNLAWYQQKQGKSPQLLVYGATNLADGVPSRFSGSGSGTQYSLKINSLQSEDFGSYFCQHFWDTPYTFGGGTKLEIK | 0.475 nM | 0.353 nM | 0.00032 s⁻¹ | 905000 M⁻¹ s⁻¹ | no binding | 1 nM | 3.2 nM | no binding (tested: 2 µg/ml) | no binding (tested: 2 µg/ml) | 0.857 nM |  |  |  |  |  |  |  |  |  |
| Antibody 9B6 (antibody, V domains shown, Mouse hybridoma mAb purified from ascites) VH: DVQLVESGGGLVQPGWSRILSCAASGFTFSNFGMHWVRQAPEKGLEWVAYISSGSGTIYYSDTVRGRFTISRDNPKNTLFLLMTSLRSEDTAMYYCTRSDYDGDWFFDVWGAGTTVTVSS VL: DIVMTQSHRFLSTSVGDRVTITCKASQDVTTAVAWCQQKPGQSPKLLIYSASFRYTGVPDRFTGSGSGTDFTFTINNVQAEDLALYYCQQHFTTPLTFGAGTKLELK | 0.34 nM | 1.07 nM | 0.000864 s⁻¹ | 809000 M⁻¹ s⁻¹ | no binding | 1.01 nM | 0.943 nM |  |  | 0.618 nM |  |  |  | no binding | 0.126 OD490 | 1.43 OD490 | no binding (tested: 5 µg/ml) | no binding (tested: 5 µg/ml) | 0.121 OD490 |
| Antibody 9H6 (antibody, V domains shown, Mouse hybridoma mAb purified from ascites) VH: EVQLQQSGAELVRPGALVKLSCKASGFNVKDYYMHWVKQRPEQGLEWIGWIDPKNGNGIYDPKFQGKASITADTSSNTAYLQLSSLTSEDTSVYYCARGDYFGSSYLFAYWGQGTLVTVSA VL: DIVMTQSHKFMSTSVGDRVSITCKASQDVSTAVAWYQQKPGQSPKLLIYSASYRYTGVPDRFTGSGSGTDFTFTISSVQAEDLAVYYCQQHYSTPWTFGGGAKLEIK | 4.97 nM | 0.0257 nM | 4.72e-06 s⁻¹ | 183000 M⁻¹ s⁻¹ | no binding | 0.945 nM | 1.04 nM |  |  | 3.12 nM |  |  |  | no binding | 0.139 OD490 | 1.86 OD490 | no binding (tested: 5 µg/ml) | no binding (tested: 5 µg/ml) | 0.177 OD490 |

Continued, values first:

| IC50 [1] | Kd [2] | koff [2] | kon [2] | binding result (LILRB3-His) | IC50 (LILRB2-Fc fusion protein) | Kd [3] | binding result [4] | binding result [5] | IC50 [6] | binding result [7] | IC50 [8] | Kd [9] | binding result (LILRB1-His) | OD490 [10] | OD490 [11] | binding result [12] | binding result [13] | OD490 [14] | Binder |
| --- | --- | --- | --- | --- | --- | --- | --- | --- | --- | --- | --- | --- | --- | --- | --- | --- | --- | --- | --- |
|  |  |  |  |  |  | 2.48 nM |  | no binding (tested: 2 µg/ml) |  | binds |  |  |  |  |  |  |  |  | Antibody 13D12 (antibody, V domains shown, Mouse hybridoma mAb purified from ascites) VH: EIQLQQSGPELVKPGASVKVSCKASGYAFTSHNIYWVKQSHGKSLEWIGYIDPYNGGSTYNQKFKDKATLTVDKSSSTAYMHLKSLTSEDSAVYYCARGDYRDFWGQGTTLTVSS VL: DIQMTQTTSSLSASLGDRVTIRCSASQAINNYLNWYQQKPDGTVKLLIYYTSSLHSGVPSRFSGSGSGADYSLTISNLEPEDIATYYCQQYSHLPWTFGGGTTLEIK |
|  |  |  |  |  |  |  |  |  |  |  | 0.318 nM | 0.242 nM |  |  |  |  |  |  | Antibody h#12a (antibody, V domains shown, Humanized variant of 9B6) VH: EVQLVESGGGLVQPGGSLRLSCAASGFTFSNFGMHWVRQAPGKGLEWVAYISSGSGTIYYSDTVRGRFTISRDDSKNTLYLQMNSLRAEDTAVYYCARSDYDGDWFFDVWGQGTLVTVSS VL: DIQMTQSPSSLSASVGDRVTITCKASQDVTTAVAWYQQKPGKAPKLLIYSASFRYTGVPSRFSGSGSGTDFTLTISSLQPEDFATYYCQQHFTTPLTFGQGTKVEIK |
|  |  |  |  | no binding | 0.942 nM | 1.24 nM |  |  | 0.82 nM |  |  |  | no binding | 0.172 OD490 | 1.21 OD490 | no binding (tested: 5 µg/ml) | no binding (tested: 5 µg/ml) | 0.172 OD490 | Antibody 14F1 (antibody, V domains shown, Mouse hybridoma mAb purified from ascites) VH: QVQLKESGPGLVAPSQSLSITCTVSGFSLTTYGVHWVRQPPGKGLEWLGVIWTGGSTNYNSALMSRLSIIKDNSKSQVFLKMNSLQTDDTAIYYCARGGYGHTMDYWGQGTSVTVSS VL: DIVMTQSHKFMSTSVGDRVSITCKASQDVSIAVAWYQQKPGQFPKLLIYSASYRYTGVPDRFTGGGSGTDFTFTISSVQAEDLAVYYCQQHYSTPFTFGSGTKLEIK |
